pKd: −log10 of the molar value.

Here are results for one substance from article PMC7226950.

For assay [1], the target named is NY-ESO, mutated peptide ESO4D (4D, 9V) peptide on HLA-A*02:01 (human). The assay can be described thus: data from [41,42]; reprinted in Table 1.
Assay [2] has as its target NY-ESO peptide on HLA-A*02:01 (human). As to the kind of experiment: data from [41,42]; reprinted in Table 1.
The target is the same in assay [3]. The assay can be described thus: data from [41,42]; experimental binding affinity data reprinted in Table 1.

In assay [1], 1G4 had a pKd of 3.60, a koff of 2.59 s⁻¹, a kon of 10000 M⁻¹ s⁻¹ and a t1/2 of 0.27 s. Also, in assay [2], the dissociation rate constant (koff) came to 0.82 s⁻¹, the kon stood at 57000 M⁻¹ s⁻¹ and the t1/2 came out at 0.84 s. The pKd in assay [3] was 4.85.
